Source: the supplement of paper PMC5998384

Columns and labels:
HeLa Kyoto [1] = test: solubility in G1/S (NP-40 vs SDS abundance) (log2 ratio); higher = more soluble; settings: cell cycle stage: G1/S
HeLa Kyoto [2] = test: melting temperature (median over replicates), in situ; higher = more thermally stable
HeLa Kyoto [3] = test: solubility change mitosis vs G1/S (difference of NP-40 vs SDS log2 ratios) (log2 ratio difference); higher = more soluble in mitosis
HeLa Kyoto [4] = test: thermal stability score vs G1/S (z-score of summed log2 fold changes over temperatures); higher = more thermally stable than in G1/S
[5] = cell cycle stage: early G1 (4.5 h after nocodazole release)
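For melting temperature (median over replicates), in situ in this document: HeLa Kyoto cells synchronized by double thymidine or nocodazole block, proteins quantified by TMT10plex mass spectrometry, three independent biological replicates.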
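For solubility change mitosis vs G1/S (difference of NP-40 vs SDS log2 ratios) in this document: synchronized HeLa Kyoto cells (double thymidine block for G1/S, nocodazole release for mitosis), protein amounts in NP-40 versus SDS lysates quantified by mass spectrometry, three biological replicates.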
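For solubility in G1/S (NP-40 vs SDS abundance) in this document: HeLa Kyoto cells arrested at G1/S by double thymidine block, proteins quantified by TMT10plex mass spectrometry in mild NP-40 versus SDS extracts, three biological replicates.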
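For thermal stability score vs G1/S (z-score of summed log2 fold changes over temperatures) in this document: synchronized HeLa Kyoto cells, proteins quantified by TMT10plex mass spectrometry, three biological replicates, mitosis taken 0.5 h after nocodazole release, G1/S directly after double thymidine block.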

Sequence of UAP1 (chain, as listed by the source): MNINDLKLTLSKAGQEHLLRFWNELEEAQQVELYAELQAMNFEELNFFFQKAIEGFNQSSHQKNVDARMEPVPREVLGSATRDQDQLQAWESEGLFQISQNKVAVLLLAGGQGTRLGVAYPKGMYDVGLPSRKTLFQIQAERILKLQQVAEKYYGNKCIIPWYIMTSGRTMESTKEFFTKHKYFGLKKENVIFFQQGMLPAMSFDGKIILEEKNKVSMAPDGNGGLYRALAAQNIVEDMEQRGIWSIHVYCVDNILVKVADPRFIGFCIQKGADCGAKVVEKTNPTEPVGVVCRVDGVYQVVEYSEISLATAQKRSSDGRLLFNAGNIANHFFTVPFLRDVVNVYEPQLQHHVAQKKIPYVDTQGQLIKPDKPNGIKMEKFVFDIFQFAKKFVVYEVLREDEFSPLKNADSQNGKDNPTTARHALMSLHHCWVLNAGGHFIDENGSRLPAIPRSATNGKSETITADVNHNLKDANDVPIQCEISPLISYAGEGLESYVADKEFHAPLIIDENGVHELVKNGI
Sequence of TIMM17B (chain, as listed by the source): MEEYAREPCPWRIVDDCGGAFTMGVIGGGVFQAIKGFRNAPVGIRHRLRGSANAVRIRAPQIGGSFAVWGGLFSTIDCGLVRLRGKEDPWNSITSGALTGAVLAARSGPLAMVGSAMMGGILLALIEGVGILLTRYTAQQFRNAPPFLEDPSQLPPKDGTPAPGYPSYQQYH
Sequence of SDHA (chain, as listed by the source): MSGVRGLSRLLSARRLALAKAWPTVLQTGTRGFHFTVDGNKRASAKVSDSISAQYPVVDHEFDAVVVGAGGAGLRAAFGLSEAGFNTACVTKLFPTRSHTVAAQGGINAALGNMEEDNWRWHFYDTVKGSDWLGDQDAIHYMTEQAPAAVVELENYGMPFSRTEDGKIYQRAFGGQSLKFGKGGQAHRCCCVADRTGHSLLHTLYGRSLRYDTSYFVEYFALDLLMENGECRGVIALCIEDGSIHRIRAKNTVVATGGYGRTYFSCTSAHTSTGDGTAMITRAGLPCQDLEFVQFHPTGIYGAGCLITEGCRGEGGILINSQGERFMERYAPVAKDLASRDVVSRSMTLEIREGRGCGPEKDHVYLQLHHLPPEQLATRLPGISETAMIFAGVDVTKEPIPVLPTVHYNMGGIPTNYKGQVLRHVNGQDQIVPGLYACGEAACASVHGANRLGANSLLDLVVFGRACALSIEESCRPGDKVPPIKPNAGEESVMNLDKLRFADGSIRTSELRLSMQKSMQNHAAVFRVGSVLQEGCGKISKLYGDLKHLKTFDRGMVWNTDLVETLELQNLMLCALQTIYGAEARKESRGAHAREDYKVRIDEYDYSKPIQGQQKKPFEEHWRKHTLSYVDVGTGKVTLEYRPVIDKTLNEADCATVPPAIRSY
Sequence of PTBP3 (chain, as listed by the source): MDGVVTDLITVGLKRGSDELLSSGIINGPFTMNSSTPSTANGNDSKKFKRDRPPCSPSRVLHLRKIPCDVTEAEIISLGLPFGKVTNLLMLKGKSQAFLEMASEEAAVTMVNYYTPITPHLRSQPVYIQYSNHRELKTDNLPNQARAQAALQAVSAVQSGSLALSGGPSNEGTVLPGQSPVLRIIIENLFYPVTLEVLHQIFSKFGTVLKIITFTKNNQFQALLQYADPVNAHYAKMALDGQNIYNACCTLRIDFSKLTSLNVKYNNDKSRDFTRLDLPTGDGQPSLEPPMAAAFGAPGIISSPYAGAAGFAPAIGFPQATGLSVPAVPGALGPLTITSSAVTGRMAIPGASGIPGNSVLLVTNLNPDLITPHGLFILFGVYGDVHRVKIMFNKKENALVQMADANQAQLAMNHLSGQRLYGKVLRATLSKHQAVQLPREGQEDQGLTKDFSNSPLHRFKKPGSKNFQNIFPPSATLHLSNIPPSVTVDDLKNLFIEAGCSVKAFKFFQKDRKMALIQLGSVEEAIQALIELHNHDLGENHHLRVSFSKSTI
Sequence of PPIE (chain, as listed by the source): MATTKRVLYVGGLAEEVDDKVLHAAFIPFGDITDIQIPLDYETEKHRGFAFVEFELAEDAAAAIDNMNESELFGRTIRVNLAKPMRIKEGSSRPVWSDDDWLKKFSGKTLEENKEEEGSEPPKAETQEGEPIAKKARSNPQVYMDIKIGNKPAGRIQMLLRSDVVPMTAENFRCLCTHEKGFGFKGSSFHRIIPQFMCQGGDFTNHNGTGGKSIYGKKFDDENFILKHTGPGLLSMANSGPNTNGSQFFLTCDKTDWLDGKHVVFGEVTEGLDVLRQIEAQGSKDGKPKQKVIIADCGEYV
Sequence of PRSS21 (chain, as listed by the source): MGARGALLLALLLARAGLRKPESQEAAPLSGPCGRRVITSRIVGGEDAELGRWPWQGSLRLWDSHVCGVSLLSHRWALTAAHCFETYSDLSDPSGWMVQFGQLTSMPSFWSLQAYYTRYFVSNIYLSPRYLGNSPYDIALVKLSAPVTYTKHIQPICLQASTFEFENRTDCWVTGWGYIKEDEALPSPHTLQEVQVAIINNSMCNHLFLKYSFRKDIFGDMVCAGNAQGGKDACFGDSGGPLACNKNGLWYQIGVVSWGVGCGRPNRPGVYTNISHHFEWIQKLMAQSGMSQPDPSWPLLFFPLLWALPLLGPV
Sequence of PELP1 (chain, as listed by the source): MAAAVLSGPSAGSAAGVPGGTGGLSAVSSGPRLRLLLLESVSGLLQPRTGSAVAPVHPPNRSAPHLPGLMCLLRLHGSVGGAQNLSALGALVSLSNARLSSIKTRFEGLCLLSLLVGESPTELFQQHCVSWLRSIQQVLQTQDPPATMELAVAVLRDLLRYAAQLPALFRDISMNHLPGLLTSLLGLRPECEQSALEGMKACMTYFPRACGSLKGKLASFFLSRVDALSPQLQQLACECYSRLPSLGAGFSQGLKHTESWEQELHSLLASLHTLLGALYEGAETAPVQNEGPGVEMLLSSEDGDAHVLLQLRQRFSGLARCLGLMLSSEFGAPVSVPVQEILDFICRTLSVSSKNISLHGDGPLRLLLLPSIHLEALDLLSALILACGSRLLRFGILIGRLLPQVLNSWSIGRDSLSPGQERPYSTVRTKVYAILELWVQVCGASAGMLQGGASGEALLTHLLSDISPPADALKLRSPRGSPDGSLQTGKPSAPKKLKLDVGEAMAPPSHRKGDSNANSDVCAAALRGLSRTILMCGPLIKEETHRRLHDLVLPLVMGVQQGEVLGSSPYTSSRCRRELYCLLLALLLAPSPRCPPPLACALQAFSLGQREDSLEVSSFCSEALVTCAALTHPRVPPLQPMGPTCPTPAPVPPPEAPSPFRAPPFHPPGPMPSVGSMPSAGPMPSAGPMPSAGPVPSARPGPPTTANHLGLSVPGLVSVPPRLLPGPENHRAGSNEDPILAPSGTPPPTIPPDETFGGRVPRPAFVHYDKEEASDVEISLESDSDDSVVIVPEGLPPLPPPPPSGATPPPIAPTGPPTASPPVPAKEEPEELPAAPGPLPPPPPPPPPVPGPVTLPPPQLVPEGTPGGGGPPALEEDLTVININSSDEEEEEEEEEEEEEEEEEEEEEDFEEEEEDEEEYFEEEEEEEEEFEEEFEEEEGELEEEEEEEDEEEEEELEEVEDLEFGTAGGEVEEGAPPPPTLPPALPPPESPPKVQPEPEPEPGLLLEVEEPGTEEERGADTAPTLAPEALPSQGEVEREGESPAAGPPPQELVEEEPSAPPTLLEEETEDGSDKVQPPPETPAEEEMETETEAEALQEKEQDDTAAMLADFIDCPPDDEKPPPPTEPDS
Sequence of SLC7A2 (chain, as listed by the source): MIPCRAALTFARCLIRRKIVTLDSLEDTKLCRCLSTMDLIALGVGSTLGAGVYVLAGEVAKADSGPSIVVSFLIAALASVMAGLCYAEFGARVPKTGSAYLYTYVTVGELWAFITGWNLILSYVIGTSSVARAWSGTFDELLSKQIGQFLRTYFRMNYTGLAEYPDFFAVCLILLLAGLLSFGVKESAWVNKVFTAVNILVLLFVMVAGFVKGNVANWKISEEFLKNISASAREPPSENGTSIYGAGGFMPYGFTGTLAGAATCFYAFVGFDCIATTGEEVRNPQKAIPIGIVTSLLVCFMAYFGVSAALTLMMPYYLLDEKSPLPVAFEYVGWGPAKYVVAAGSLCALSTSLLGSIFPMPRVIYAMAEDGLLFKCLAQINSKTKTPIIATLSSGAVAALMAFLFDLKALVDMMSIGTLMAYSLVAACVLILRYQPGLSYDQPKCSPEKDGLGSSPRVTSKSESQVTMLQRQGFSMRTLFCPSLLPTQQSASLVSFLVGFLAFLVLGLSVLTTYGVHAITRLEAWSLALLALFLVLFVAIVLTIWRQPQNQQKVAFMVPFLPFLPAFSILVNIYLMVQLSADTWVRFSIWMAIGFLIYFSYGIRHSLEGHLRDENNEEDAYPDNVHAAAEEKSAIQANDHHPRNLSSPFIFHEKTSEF

| Substance | solubility in G1/S (log2) (HeLa Kyoto [1]) | melting temperature (HeLa Kyoto [2]; cell cycle stage: G1/S) [°C] | melting temperature (HeLa Kyoto [2]; cell cycle stage: mitosis) [°C] | solubility change mitosis (log2) (HeLa Kyoto [3]) | thermal stability score (HeLa Kyoto [4]; [5]) | thermal stability score (HeLa Kyoto [4]; cell cycle stage: mitosis) |
| --- | --- | --- | --- | --- | --- | --- |
| NUP214 | -0.301 | 50.5 | 49.8 | 0.0567 | -1.39 | -1.03 |
| OXCT1 | 0.23 | 53 | 52.8 | -0.0718 | -1.63 | -1.92 |
| OXSR1 | 0.197 | 49.1 | 49.6 | -0.146 | 1.02 | 0.906 |
| PARP4 | -0.0707 | 50.7 | 49.8 | -0.107 | 1.67 | 0.026 |
| PCM1 | -0.73 | 49.8 | 50.3 | 0.65 | -0.276 | 0.507 |
| PCNT | -0.221 | 50.8 | 52.9 | -0.162 | 2.3 | 2.45 |
| PELP1 | -1.2 | 55.2 | 53.8 | 0.451 | -1.93 | -5.97 |
| PKM | 0.116 | 57.8 | 57.4 | -0.106 | -2.6 | -2.54 |
| PLEC | -2.57 | 53.2 | 52.7 | 0.643 | -8.96 | -8.24 |
| PNKP | 0.193 | 48.6 | 49.3 | -0.0487 | 0.324 | 1.25 |
| PNN | -1.25 | 48.6 | 50 | 0.808 | 0.124 | 3.19 |
| PNO1 | -0.779 | 50.3 | 50 | 0.449 | 0.178 | 0.628 |
| PPIB | 0.0181 | 53.8 | 54.4 | 0.0983 | 4.65 | 4.71 |
| PPIC | 0.0897 | 53.6 | 53.4 | -0.103 | 1.01 | -0.315 |
| PPIE | 0.351 | 49 | 51.7 | 0.13 | 1.18 | 2.29 |
| PPIF | 0.731 | 52.2 | 52.1 | 0.14 | 0.427 | -1.83 |
| PPP2R5A | 0.0389 | 50.8 | 50.5 | -0.192 | 0.702 | 1.43 |
| PRRC2C | -0.328 | 55.6 | 55.2 | 0.111 | -0.644 | -2.2 |
| PRSS21 | 0.0531 | 52.9 | 52.9 | -0.176 | 0.469 | 0.197 |

| Substance | solubility in G1/S (log2) (HeLa Kyoto [1]) | melting temperature (HeLa Kyoto [2]; cell cycle stage: G1/S) [°C] | melting temperature (HeLa Kyoto [2]; cell cycle stage: mitosis) [°C] | solubility change mitosis (log2) (HeLa Kyoto [3]) | thermal stability score (HeLa Kyoto [4]; [5]) | thermal stability score (HeLa Kyoto [4]; cell cycle stage: mitosis) |
| --- | --- | --- | --- | --- | --- | --- |
| PTBP3 | -0.19 | 46.6 | 48 | 0.15 | 0.736 | 1.3 |
| RAB14 | 0.0669 | 60.6 | 58.8 | -0.0891 | -1.89 | -3.07 |
| RALGAPB | -0.0337 | 50.2 | 51 | -0.169 | -1.55 | -1.73 |
| RAPGEF2 | -0.143 | 50.8 | – | -0.144 | -0.581 | -1.21 |
| RHOG | 0.562 | 55.9 | 55.2 | -0.00567 | -1.81 | -2.65 |
| SAMD9 | -0.156 | 47.5 | 49.2 | -0.171 | 0.5 | 1.68 |
| SAR1B | -0.00727 | 52.3 | 53.4 | -0.182 | 0.15 | 0.55 |
| SDHA | -0.11 | 54.7 | 56.4 | -0.0448 | 1.89 | 2.23 |
| SLC7A2 | 0.0385 | 55.5 | 57 | -0.149 | -3.64 | -8.3 |
| SLC7A5 | 0.0865 | 60.4 | 57.8 | -0.0332 | -2.12 | -3.93 |
| SMCHD1 | -0.216 | 47.4 | 48.7 | -0.104 | 3.02 | 5.78 |
| SPTAN1 | -0.956 | 53 | 51.5 | 0.485 | -0.312 | -1.93 |
| SPTBN2 | -1.02 | 51.8 | 50.8 | 0.477 | 0.264 | -0.194 |
| SRGAP2 | 0.0333 | 50 | 50.5 | 0.0509 | 0.993 | 0.737 |
| SRRM2 | -0.81 | 48.3 | 50.2 | 0.682 | -1.58 | 5.67 |
| STK24 | 0.479 | 51.7 | 52.3 | -0.0565 | 4.29 | 2.12 |
| STK26 | 0.393 | 49.1 | 49.8 | -0.0994 | 1.96 | 2.98 |
| TACC2 | 0.219 | 54.3 | 53.8 | -0.0921 | -1.3 | 1.83 |
| TANC2 | 0.222 | – | 50.3 | -0.0218 | 0.0704 | 0.122 |

| Substance | solubility in G1/S (log2) (HeLa Kyoto [1]) | melting temperature (HeLa Kyoto [2]; cell cycle stage: G1/S) [°C] | melting temperature (HeLa Kyoto [2]; cell cycle stage: mitosis) [°C] | solubility change mitosis (log2) (HeLa Kyoto [3]) | thermal stability score (HeLa Kyoto [4]; [5]) | thermal stability score (HeLa Kyoto [4]; cell cycle stage: mitosis) |
| --- | --- | --- | --- | --- | --- | --- |
| TATDN1 | 0.194 | 56.1 | 56.4 | -0.119 | -1.11 | -2.1 |
| TCF20 | -0.513 | – | 51.1 | 0.527 | 0.72 | 1.03 |
| TIMM17B | 0.308 | 54.9 | 57.2 | 0.0028 | -0.611 | -0.727 |
| TJP1 | -0.366 | 49.3 | 50.3 | 0.126 | -0.423 | 1.4 |
| TLK2 | -0.0304 | 50.9 | 52.2 | -0.141 | 1.27 | 1.41 |
| TLN2 | -0.145 | 50.5 | 50.4 | 0.0273 | -0.491 | -0.643 |
| TOP2B | -2.12 | 52.2 | 51.6 | 0.675 | 0.414 | 1.45 |
| TPM4 | 0.907 | 55.8 | – | 0.532 | -0.98 | -3.48 |
| TRIOBP | 0.139 | 49.1 | 49.3 | 0.0573 | 0.418 | 1.17 |
| TRIP12 | -0.461 | 48.4 | 48.7 | 0.333 | -0.291 | 0.532 |
| UAP1 | 0.216 | 53.2 | 53.3 | -0.119 | 0.837 | 1.62 |
| URB1 | -1.55 | – | 50.5 | 0.746 | 0.229 | 0.403 |
| USP24 | -0.205 | 51.4 | 50.5 | -0.155 | 0.0834 | -0.634 |
| UTP20 | -1.01 | 47.3 | 50.7 | 0.363 | 1.17 | 5.97 |
| VLDLR | -0.0421 | 56.4 | 55.4 | -0.0963 | -2.48 | -3.74 |
| VPS13C | -0.229 | 52.7 | 53.1 | -0.127 | -0.0535 | -0.882 |
| WDR45B | 0.0796 | 54.5 | 57.4 | -0.118 | 0.71 | -1.09 |
| ZZEF1 | -0.243 | 51.8 | 51.5 | -0.0476 | 0.459 | 0.456 |
